Where two headings read alike, the source gives them in different places.

Assay [1] deals with T1, recombinant human PSMA (R&D, cat. no. 4234-ZN) (human, UniProt Q04609 44-750).
T1 construct: Bought protein; also called rhPSMA; Recombinant PMSA
Description: Octet RED384 BLI, PSMA on sensor, VH series from 0.375 ug/ml.

The target of assay [2] is T2, human prostate specific membrane antigen (PSMA), full-length, on cells (human, UniProt Q04609 1-750).
T2 construct: also called huPSMA; human PSMA
Kind of assay: FMAT direct cell binding, CHO human PSMA cells.

Assay [3] deals with T2, human prostate specific membrane …. Description: FMAT cell binding, huPSMA CHO 1A10 cells, after 4 days in human serum at 37 C.
For assay [4] the target is unchanged. Description: cell-based or functional assay.
The target is the same in assay [5]. Description: FMAT cell binding, huPSMA CHO 1A10 cells, after 1 day in human serum at 37 C.
The target is the same in assay [6]. Kind of assay: FMAT cell binding, huPSMA CHO 1A10 cells, after 7 days in human serum at 37 C.
Assay [7] has as its target T3, cynomolgus PSMA, full-length, on CHO cells (cynomolgus, UniProt A0A2K5VNZ0 1-750). Description: cell-based or functional assay.
Assay [8] addresses T2, human prostate specific membrane …. Kind of assay: cell-based or functional assay. The source holds these as a separate data set.
Assay [9] concerns the target T3, cynomolgus PSMA, full-length, on CHO …. Description: FMAT direct cell binding, CHO cyno PSMA cells.
The target of assay [10] is T2, human prostate specific membrane …. Kind of assay: FMAT cell binding, huPSMA CHO 1A10 cells, after 0 days in human serum at 37 C.
Assay [11] has the same target. Kind of assay: FMAT direct cell binding, LNCap cells.
The target is the same in assay [12]. Description: FMAT direct cell binding, DU145 PSMA cells.
The target is the same in assay [13]. Kind of assay: FMAT cell binding, huPSMA CHO cells, after 0 days in human serum at 37 C.
The target is the same in assay [14]. Kind of assay: FMAT direct cell binding, human PSMA-CHO cells.
For assay [15] the target is unchanged. Kind of assay: FMAT cell binding, huPSMA CHO cells, after 1 day in human serum at 37 C.
Assay [16] shares this target. Kind of assay: FMAT cell binding, huPSMA CHO cells, after 4 days in human serum at 37 C.
The target is the same in assay [17]. Description: FMAT cell binding, huPSMA CHO cells, after 7 days in human serum at 37 C.
Assay [18] has as its target T3, cynomolgus PSMA, full-length, on CHO …. Kind of assay: FMAT Mirrorball direct cell binding, purified His-tagged VH titrated on CHO cells expressing cynomolgus PSMA, FL2 median binding signal [panel cynoPSMA-CHO binding].
The target of assay [19] is T2, human prostate specific membrane …. Description: FMAT cell binding, huPSMA CHO 1A10 cells, after 1 day in human serum at 37 C. This is another data set of the same source.
The target of assay [20] is T1, recombinant human PSMA (R&D, cat. no. …). Description: Octet RED384 BLI, PSMA on sensor, VH series from 0.375 ug/ml. This is another data set of the same source. On the technique in general: In BLI a coated tip is dipped into the sample, and binding shifts an interference pattern.
Assay [21] concerns the target T2, human prostate specific membrane …. Kind of assay: FMAT cell binding, huPSMA CHO 1A10 cells, after 4 days in human serum at 37 C. The source holds these as a separate data set.
The target is the same in assay [22]. Kind of assay: FMAT cell binding, huPSMA CHO 1A10 cells, after 0 days in human serum at 37 C. The source holds these as a separate data set.
The target is the same in assay [23]. Kind of assay: FMAT cell binding, huPSMA CHO 1A10 cells, after 7 days in human serum at 37 C. The source holds these as a separate data set.

T2 sequence (Q04609 whole entry): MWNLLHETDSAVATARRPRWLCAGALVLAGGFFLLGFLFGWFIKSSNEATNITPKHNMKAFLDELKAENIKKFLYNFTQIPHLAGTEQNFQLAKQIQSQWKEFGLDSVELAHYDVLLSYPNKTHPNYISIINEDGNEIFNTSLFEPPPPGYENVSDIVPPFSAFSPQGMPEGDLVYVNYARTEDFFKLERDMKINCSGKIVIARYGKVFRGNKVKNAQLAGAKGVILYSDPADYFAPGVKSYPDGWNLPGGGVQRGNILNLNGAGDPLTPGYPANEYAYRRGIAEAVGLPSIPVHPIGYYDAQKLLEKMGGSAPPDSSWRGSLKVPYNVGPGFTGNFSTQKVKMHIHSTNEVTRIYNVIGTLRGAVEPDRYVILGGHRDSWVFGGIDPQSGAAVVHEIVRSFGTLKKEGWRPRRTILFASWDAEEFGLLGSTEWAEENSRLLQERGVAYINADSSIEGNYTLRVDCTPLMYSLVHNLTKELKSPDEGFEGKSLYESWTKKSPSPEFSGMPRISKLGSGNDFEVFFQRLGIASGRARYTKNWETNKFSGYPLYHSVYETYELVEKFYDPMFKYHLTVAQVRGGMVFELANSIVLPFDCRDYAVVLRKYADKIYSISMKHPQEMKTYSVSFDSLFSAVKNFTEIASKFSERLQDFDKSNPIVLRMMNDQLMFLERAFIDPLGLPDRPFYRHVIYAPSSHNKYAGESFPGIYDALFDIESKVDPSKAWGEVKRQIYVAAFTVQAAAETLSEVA
T1 sequence (Q04609 44-750 limits assumed): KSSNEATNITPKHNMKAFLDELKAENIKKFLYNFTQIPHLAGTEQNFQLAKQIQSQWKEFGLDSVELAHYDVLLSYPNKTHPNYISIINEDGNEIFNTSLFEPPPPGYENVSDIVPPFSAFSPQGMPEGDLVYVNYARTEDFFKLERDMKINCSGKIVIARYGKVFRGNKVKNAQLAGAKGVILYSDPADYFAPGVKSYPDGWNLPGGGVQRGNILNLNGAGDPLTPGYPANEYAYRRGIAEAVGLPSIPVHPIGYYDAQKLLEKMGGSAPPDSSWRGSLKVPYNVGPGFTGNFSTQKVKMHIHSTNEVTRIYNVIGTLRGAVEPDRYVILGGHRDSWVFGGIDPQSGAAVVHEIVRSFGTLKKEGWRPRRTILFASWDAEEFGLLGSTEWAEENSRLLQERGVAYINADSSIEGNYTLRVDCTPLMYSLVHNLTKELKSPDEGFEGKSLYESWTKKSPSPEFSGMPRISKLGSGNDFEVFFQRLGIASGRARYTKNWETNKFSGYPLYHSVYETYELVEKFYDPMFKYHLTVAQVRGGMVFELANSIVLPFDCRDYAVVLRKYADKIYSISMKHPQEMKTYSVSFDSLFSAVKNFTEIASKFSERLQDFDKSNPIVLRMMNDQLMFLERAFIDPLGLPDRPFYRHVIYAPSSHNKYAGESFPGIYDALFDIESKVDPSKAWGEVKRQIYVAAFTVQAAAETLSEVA

B1: single VH domain antibody 1.16 (VHH)
VHH: EVQLLESGGGLVQPGGSLRLSCAASGFSFSSYALSWVRQAPGKGLEWVSSIGENNHTTDYADTVKGRFTISRDNSKNTLYLQMNSLRVEDTAVYYCVKDGVHWGQGTLVTVSS
notes: Human single VH domain antibody (Humabody)
For orientation: Kd means the equilibrium constant for the complex coming apart. As usually defined, the koff is the first-order rate constant of dissociation. The term EC50 denotes the concentration that produces a half-maximal response. A high value points to lower potency in that assay. As to B1, in [1], the Kd was determined as 0.44 nM. Moreover, the koff in assay [1] turned out to be 0.000365 s⁻¹. Moreover, the EC50 in [2] worked out at 0.068 nM; in assay [3], 0.242 nM; in assay [5] it was 0.243 nM; in [6], 0.236 nM; in [9] it was 0.146 nM; in assay [10], 0.165 nM. In addition, the EC50 was found to be 0.0754 nM in assay [11] and 0.0594 nM in [12]. The “pHrodo Green internalization assay, human PSMA Average EC50 (M)” value (shortened to “pHrodo Green internalization assay”) in assay [4] came to 4.8e-10 M. Further, in assay [7], the “His-ZAP cell killing, cyno PSMA EC50” value came to 420 pM. Further, in assay [8], the “His-ZAP cell killing, human PSMA Average EC50” value was found to be 17 pM.

B2: single VH domain antibody 1.18 (VHH)
VHH: EVQLLESGGGLVQPGGSLRLSCAASGFSFSSYALSWVRQAPGKGLEWVSSIGENNATTDYAASVKGRFTISRDNSKNTLYLQMNSLRVEDTAVYYCVKDGVHWGQGTLVTVSS
notes: as for B1
Turning to B2, the Kd in assay [1] worked out at 0.59 nM. The koff in assay [1] amounted to 0.000572 s⁻¹. Moreover, the EC50 in assay [2] was found to be 0.0586 nM; in assay [3] it was 0.319 nM; in assay [5] it was 0.311 nM; in assay [6], 0.313 nM; in assay [9] it was 0.124 nM; in assay [10], 0.304 nM. Besides, the EC50 amounted to 0.0424 nM in assay [11] and 0.0495 nM in assay [12]. For the same molecule, the “pHrodo Green internalization assay” value in assay [4] is 3.1e-10 M. Also, in assay [7], the “His-ZAP cell killing, cyno PSMA EC50” value is 480 pM. Further, the “His-ZAP cell killing, human PSMA Average EC50” value in assay [8] turned out to be 23 pM.

B3: 1.11-6GS-2.1 (bispecific antibody)
chain: EVQLLESGGGLVQPGGSLRLSCAASGFSFSSYALSWVRQAPGKGLEWVSSIGENNDTTDYADNVKGRFTISRDNSKNTLYLQMNSLRVEDTAVYYCVKDGVHWGQGTLVTVSSGGGGSGGGGSGGGGSGGGGSGGGGSGGGGSEVQLVESGGGVVQPGRSLRLSCAASGFSFSGYGMHWVRQAPGKGLEWVAYISYDGSNKYYADSVKGRFTISRDNSKNTLYLQMNSLRAEDTAVYYCAKDPAWGLRLGESSSYDFDIWGQGTMVTVSS
notes: linker (G4S)6; also called 1.11-2.1
With B3, the EC50 in assay [13] amounted to 0.0892 nM; in [14] it was 0.287 nM; in assay [15] it was 0.0605 nM; in assay [16], 0.0736 nM; in assay [17], 0.0865 nM. The “His-ZAP cell killing, cyno PSMA Average EC50” value in assay [7] came to 12 pM. The “His-ZAP cell killing, human PSMA Average EC50” value in assay [8] worked out at 17 pM.

B4: 1.16-6GS-2.1 (bispecific antibody)
chain: EVQLLESGGGLVQPGGSLRLSCAASGFSFSSYALSWVRQAPGKGLEWVSSIGENNHTTDYADTVKGRFTISRDNSKNTLYLQMNSLRVEDTAVYYCVKDGVHWGQGTLVTVSSGGGGSGGGGSGGGGSGGGGSGGGGSGGGGSEVQLVESGGGVVQPGRSLRLSCAASGFSFSGYGMHWVRQAPGKGLEWVAYISYDGSNKYYADSVKGRFTISRDNSKNTLYLQMNSLRAEDTAVYYCAKDPAWGLRLGESSSYDFDIWGQGTMVTVSS
notes: linker (G4S)6
For B4, the EC50 in assay [13] turned out to be 0.0902 nM; in assay [14], 0.306 nM; in assay [15], 0.086 nM; in assay [16] it was 0.1 nM; in assay [17] it was 0.107 nM. In addition, in [7], the “His-ZAP cell killing, cyno PSMA Average EC50” value was determined as 13 pM. Further, the “His-ZAP cell killing, human PSMA Average EC50” value in assay [8] amounted to 14 pM.

B5: 1.11-6GS-2.17 (bispecific antibody)
chain: EVQLLESGGGLVQPGGSLRLSCAASGFSFSSYALSWVRQAPGKGLEWVSSIGENNDTTDYADNVKGRFTISRDNSKNTLYLQMNSLRVEDTAVYYCVKDGVHWGQGTLVTVSSGGGGSGGGGSGGGGSGGGGSGGGGSGGGGSEVQLVESGGGVVQPGRSLRLSCAASGFSFSGYGMHWVRQAPGKGLEWVAYISYDASNKYYADNVKGRFTISRDNSKNTLYLQMNSLRAEDTAVYYCAKDPAWGLRLGESSSYDFDIWGQGTMVTVSS
notes: linker (G4S)6
Take B5: the EC50 in assay [13] is 0.0639 nM; in assay [14], 0.281 nM; in assay [15] it was 0.0725 nM; in assay [16] it was 0.0844 nM; in assay [17], 0.101 nM. In addition, the “His-ZAP cell killing, cyno PSMA Average EC50” value in assay [7] is 8.1 pM. For the same molecule, the “His-ZAP cell killing, human PSMA Average EC50” value in assay [8] worked out at 7.9 pM.

B6: 1.16-6GS-2.17 (bispecific antibody)
chain: EVQLLESGGGLVQPGGSLRLSCAASGFSFSSYALSWVRQAPGKGLEWVSSIGENNHTTDYADTVKGRFTISRDNSKNTLYLQMNSLRVEDTAVYYCVKDGVHWGQGTLVTVSSGGGGSGGGGSGGGGSGGGGSGGGGSGGGGSEVQLVESGGGVVQPGRSLRLSCAASGFSFSGYGMHWVRQAPGKGLEWVAYISYDASNKYYADNVKGRFTISRDNSKNTLYLQMNSLRAEDTAVYYCAKDPAWGLRLGESSSYDFDIWGQGTMVTVSS
notes: linker (G4S)6
As for B6, the EC50 came to 0.0741 nM in assay [13]; 0.333 nM in assay [14]; 0.0944 nM in assay [15]; 0.0628 nM in assay [16]; 0.0675 nM in [17]. In addition, the “His-ZAP cell killing, cyno PSMA Average EC50” value in [7] was found to be 11 pM. Also, the “His-ZAP cell killing, human PSMA Average EC50” value in assay [8] stood at 15 pM.

B7: 2.10 (VHH)
VHH: EVQLVESGGGVVQPGRSLRLSCAASGFTFSGYGMHWVRQAPGKGLEWVAYISYDGSNRYYADSVKGRFTISRDNSKKTLSLQMNSLRAEDTAVYYCAKDPAWGLRLGESSSYDFDIWGQGTMVTVSS
notes: On the sheet it is the filled up triangle; also called single VH domain antibody 2.10
Broadly, the EC50 (read off the curve) is the concentration at which the effect is half-maximal. A low value points to a more potent agent. Take B7: the “EC50 (read off the curve)” value in assay [18] is approximately 1 nM.

B8: single VH domain antibody 2.17 (VHH)
VHH: EVQLVESGGGVVQPGRSLRLSCAASGFSFSGYGMHWVRQAPGKGLEWVAYISYDASNKYYADNVKGRFTISRDNSKNTLYLQMNSLRAEDTAVYYCAKDPAWGLRLGESSSYDFDIWGQGTMVTVSS
notes: Human single VH domain antibody (Humabody); C-terminal His tag, residues not tied
On to B8, for which the EC50 in assay [19] amounted to 0.21 nM; in [2], 0.1 nM; in [21], 0.228 nM; in assay [9], 0.308 nM; in assay [11], 0.0113 nM; in assay [22], 0.23 nM. For the same molecule, the EC50 in [12] was 0.218 nM; in assay [23] it was 0.238 nM. In assay [4], the “pHrodo Green internalization assay” value turned out to be 8e-10 M. For the same molecule, the Kd in assay [20] is 0.76 nM. In addition, the koff in assay [20] turned out to be 0.000726 s⁻¹. The “His-ZAP cell killing, cyno PSMA EC50” value in assay [7] came out at 70 pM. Also, in assay [8], the “His-ZAP cell killing, human PSMA Average EC50” value turned out to be 35 pM.

For the origin of these results see US20200131274A1 (CRESCENDO BIOLOGICS, published 2020).
